According to patent US20050260693A1 (MOUNT SINAI SCHOOL OF MEDICINE, published 2005):
Where no end group is shown, it is not given here. [ ]: non-standard residue; d: D form. pS = N[C@@H](COP(=O)(O)O)C(=O)O

Legend:
[1] = system: T1, GST-322 fusion protein
T1 sequence: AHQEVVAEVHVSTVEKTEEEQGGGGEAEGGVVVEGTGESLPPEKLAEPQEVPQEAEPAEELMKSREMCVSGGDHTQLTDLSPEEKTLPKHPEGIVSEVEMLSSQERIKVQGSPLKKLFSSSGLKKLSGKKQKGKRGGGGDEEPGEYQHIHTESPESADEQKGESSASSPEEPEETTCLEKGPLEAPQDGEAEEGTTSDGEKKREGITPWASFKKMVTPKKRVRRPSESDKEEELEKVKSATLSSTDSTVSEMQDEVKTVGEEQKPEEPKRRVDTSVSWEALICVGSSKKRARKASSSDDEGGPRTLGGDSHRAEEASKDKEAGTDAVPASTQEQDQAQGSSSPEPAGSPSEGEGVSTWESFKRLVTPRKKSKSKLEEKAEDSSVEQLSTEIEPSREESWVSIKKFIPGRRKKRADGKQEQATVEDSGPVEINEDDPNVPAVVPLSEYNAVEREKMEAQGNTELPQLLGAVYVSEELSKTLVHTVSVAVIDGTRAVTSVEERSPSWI

[2] = system: T2, GST-322 prephosphorylated by PKC; assay: GST pull-down of PKC with phosphatidylserine; against the unphosphorylated fusion protein
T2 sequence: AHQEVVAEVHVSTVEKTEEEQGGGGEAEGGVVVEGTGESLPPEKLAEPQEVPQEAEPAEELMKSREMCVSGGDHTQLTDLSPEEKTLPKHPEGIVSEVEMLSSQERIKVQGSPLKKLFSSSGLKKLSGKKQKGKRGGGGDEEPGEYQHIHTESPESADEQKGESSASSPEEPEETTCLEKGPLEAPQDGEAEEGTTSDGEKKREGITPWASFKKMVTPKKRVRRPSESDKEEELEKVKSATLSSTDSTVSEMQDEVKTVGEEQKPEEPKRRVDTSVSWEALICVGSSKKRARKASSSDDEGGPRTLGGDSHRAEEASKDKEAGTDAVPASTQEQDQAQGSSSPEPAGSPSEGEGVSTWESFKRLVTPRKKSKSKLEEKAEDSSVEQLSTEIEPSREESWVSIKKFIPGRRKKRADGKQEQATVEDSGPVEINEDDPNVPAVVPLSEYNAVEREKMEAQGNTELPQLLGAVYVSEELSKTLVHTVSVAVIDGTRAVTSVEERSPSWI

[3] = molecular target: cyclin D1 (endogenous and ectopic) of S24, S24/D1, S24/V and V3 cells (UniProt P25322); assay: GST pull-down with mutated GST-SSeCKS2
Sequence of cyclin D1 (endogenous and ectopic) of S24, S24/D1, S24/V and V3 cells (UniProt P25322) (P25322 whole entry): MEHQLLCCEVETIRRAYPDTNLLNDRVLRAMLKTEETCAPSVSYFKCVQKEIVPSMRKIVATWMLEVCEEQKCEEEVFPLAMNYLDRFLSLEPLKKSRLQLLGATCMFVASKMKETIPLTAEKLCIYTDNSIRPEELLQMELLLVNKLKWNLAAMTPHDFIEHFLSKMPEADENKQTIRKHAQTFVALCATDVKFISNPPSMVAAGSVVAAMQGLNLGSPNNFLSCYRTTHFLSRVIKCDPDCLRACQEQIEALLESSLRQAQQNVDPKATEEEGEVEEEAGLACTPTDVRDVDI

[4] = molecular target: T3, cyclin D1 (endogenous and ectopic) of S24, S24/D1, S24/V and V3 cells (UniProt P25322 1-295); assay: cell-based or functional assay
T3 sequence (P25322 whole entry): as above

[5] = molecular target: T3, cyclin D1 (endogenous and ectopic) of …; assay: cell-based or functional assay; remark: listed apart in the source

| Molecule | reduction of cyclin D1 binding against wild-type GST-SSeCKS2 [3] [%] | % of cells showing nuclear staining of cyclin D1, S24/D1, -TET, peptide 100 µg/ml for 4 h [4] [%] | further results |
| --- | --- | --- | --- |
| purified rabbit brain PKC |  |  | in vitro phosphorylation by PKC ([32P]ATP, SDS-PAGE and autoradiography) [1]: purified rat brain PKC containing α, β, and δ isoforms could phosphorylate GST-322 protein in vitro; fold decrease of binding after prephosphorylation by PKC [2]: Prephosphorylation of GST-322 by PKC decreases this binding at least 10-fold |
| GST-SSeCKS2 with upstream KK mutated to SS (protein, not shown: a dimerising Fc or GST) AHQEVVAEVHVSTVEKTEEEQGGGGEAEGGVVVEGTGESLPPEKLAEPQEVPQEAEPAEELMKSREMCVSGGDHTQLTDLSPEEKTLPKHPEGIVSEVEMLSSQERIKVQGSPLSSLFSSSGLKKLSGKKQKGKRGGGGDEEPGEYQHIHTESPESADEQKGES | 70 |  |  |
| GST-SSeCKS2 with downstream KK mutated to SS (protein, not shown: a dimerising Fc or GST) AHQEVVAEVHVSTVEKTEEEQGGGGEAEGGVVVEGTGESLPPEKLAEPQEVPQEAEPAEELMKSREMCVSGGDHTQLTDLSPEEKTLPKHPEGIVSEVEMLSSQERIKVQGSPLKKLFSSSGLSSLSGKKQKGKRGGGGDEEPGEYQHIHTESPESADEQKGES | 70 |  |  |
| RQIKIWFQNRRMKWKKLSSSFSSSGLSSSSGK (also: N-terminal biotin on half of the product) [penetratin-linked mutated CY peptide (K→S)] |  | 30 |  |
| RQIKIWFQNRRMKWKKLKKLFSSSGLKKLSGK (also: N-terminal biotin on half of the product) [penetratin-linked wt SSeCKS CY peptide] |  | 82 | increase in cyclin D translocation to nuclei, S24/D1 cells incubated 4 h with peptide [5]: ~2 fold |
| RQIKIWFQNRRMKWKKLKKLF[pS]SSGLKKL[pS]GK (also: N-terminal biotin on half of the product) [penetratin-linked phosphoserine CY peptide] |  | 39 |  |
